In article PMC6618080:

Biological target: Hepatitis B e antigen (HBeAg), purified (hepatitis B virus)
Assay: SEC-MALS

Hepatitis B e antigen (HBeAg), purified (natural protein)
stoichiometry N: 2
